Measurements as given in article doi:10.1101/2024.02.25.581951.

Target: T1, IRF3 (mouse (endogenous in mouse ESCs)), P70671
T1 chain: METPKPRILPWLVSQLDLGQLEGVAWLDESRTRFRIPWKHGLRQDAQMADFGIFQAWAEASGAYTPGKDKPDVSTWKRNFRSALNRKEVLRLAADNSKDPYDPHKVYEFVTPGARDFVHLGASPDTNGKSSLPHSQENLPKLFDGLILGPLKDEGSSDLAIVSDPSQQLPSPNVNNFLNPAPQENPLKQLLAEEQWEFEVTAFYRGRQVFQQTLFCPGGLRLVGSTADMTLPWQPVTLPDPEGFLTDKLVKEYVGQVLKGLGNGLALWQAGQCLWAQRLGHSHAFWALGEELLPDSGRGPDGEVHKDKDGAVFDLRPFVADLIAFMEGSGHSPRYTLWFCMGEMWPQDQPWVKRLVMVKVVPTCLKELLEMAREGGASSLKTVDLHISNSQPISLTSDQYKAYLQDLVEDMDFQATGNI
Assay: native gel or EMSA
Conditions: remark: other sources report otherwise

B1: IRF3, P70671 1-419 (natural protein)
chain: T1 chain
- stoichiometry N: 2
